According to US20250313605A1:
*1 amine or outer side, *2 acyl side, *3 side chain or, on linkers, in order; H or OH if unused. Where no end group is shown, it is not given here. Side-chain parts run from the residue outwards. [ ]: non-standard residue; d: D form. The star is where a group is joined. C20 diacid = O=C(O)CCCCCCCCCCCCCCCCCCC(=O)*; γGlu = O=C(O)[C@H](CCC(=O)[*:2])N[*:1]; αMeL = CC(C)C[C@](C)(N)C(=O)O; αMeK = C[C@](N)(CCCCN)C(=O)O; AEEA = NCCOCCOCC(=O)O; Aib = CC(C)(N)C(=O)O

T1: human GLP-1 receptor (human), P43220
T1 chain: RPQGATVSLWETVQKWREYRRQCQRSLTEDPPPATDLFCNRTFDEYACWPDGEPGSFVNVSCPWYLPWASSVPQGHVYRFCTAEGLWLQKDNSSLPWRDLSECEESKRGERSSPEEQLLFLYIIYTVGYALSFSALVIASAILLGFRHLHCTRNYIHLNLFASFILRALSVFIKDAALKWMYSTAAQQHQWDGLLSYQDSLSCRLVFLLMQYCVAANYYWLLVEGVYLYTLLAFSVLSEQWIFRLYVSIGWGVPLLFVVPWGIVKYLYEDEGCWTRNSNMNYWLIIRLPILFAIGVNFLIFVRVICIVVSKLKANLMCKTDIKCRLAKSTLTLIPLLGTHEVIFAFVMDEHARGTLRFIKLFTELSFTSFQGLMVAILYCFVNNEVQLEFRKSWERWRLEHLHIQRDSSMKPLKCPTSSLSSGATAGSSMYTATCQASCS

T2: human GIP receptor (human), P48546
T2 chain: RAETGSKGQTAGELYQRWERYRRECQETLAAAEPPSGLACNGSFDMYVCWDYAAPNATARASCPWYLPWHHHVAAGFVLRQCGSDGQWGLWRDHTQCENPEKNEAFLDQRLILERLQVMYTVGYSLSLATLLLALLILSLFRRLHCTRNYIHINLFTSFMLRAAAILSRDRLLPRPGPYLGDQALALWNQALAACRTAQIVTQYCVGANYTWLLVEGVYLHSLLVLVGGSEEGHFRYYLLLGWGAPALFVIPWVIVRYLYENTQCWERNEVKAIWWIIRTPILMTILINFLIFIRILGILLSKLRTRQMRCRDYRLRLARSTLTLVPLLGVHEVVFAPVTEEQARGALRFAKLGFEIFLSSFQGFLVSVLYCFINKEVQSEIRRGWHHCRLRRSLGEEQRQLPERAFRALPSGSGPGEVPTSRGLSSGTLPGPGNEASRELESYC


Tests used:
[1] = target: T1, human GLP-1 receptor (human), P43220; experiment: cell-based or functional assay
[2] = target: human glucagon receptor (human), P47871; experiment: cell-based or functional assay
[3] = target: T2, human GIP receptor (human), P48546; experiment: cell-based or functional assay
[4] = target: T1, human GLP-1 receptor (human), P43220; experiment: radioligand competition SPA, HEK293 membranes
[5] = target: human glucagon receptor (human), P47871; experiment: radioligand competition SPA, HEK293 membranes
[6] = target: T2, human GIP receptor (human), P48546; experiment: radioligand competition SPA, HEK293 membranes

Chain of human glucagon receptor (human), P47871 (P47871 26-477): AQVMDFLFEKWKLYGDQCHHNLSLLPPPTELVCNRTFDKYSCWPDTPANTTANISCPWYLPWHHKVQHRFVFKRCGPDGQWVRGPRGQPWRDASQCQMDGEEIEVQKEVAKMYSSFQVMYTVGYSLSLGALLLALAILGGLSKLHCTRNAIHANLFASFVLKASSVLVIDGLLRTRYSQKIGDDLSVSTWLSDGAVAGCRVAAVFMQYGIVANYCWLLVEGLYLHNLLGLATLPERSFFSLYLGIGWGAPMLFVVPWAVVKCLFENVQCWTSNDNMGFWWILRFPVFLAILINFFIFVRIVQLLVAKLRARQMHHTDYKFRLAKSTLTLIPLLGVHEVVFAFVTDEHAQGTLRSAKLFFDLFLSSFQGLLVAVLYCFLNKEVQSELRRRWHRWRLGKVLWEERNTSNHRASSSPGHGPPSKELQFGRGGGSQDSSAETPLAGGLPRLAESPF

Row | Binder | cAMP EC50 (0.1% casein) [1] [nM] | cAMP EC50 (FBS and BSA present) [1] [nM] | cAMP EC50 (0.1% casein) [2] [nM] | cAMP EC50 (FBS and BSA present) [2] [nM] | cAMP EC50 (0.1% casein) [3] [nM] | cAMP EC50 (FBS and BSA present) [3] [nM] | Ki [4] [nM] | Ki [5] [nM] | Ki [6] [nM]
1 | H-Y[Aib]QGTFTSDYSI[αMeL]LDKK([AEEA-AEEA-γGlu-C20 diacid])AQ[αMeK]AFIEYLLA[Aib]GPSSGAPPPS-NH2 (SMILES CC[C@H](C)[C@H](NC(=O)[C@H](Cc1ccccc1)NC(=O)[C@H](C)NC(=O)[C@](C)(CCCCN)NC(=O)[C@H](CCC(N)=O)NC(=O)[C@H](C)NC(=O)[C@H](CCCCNC(=O)COCCOCCNC(=O)COCCOCCNC(=O)CC[C@H](NC(=O)CCCCCCCCCCCCCCCCCCC(=O)O)C(=O)O)NC(=O)[C@H](CCCCN)NC(=O)[C@H](CC(=O)O)NC(=O)[C@H](CC(C)C)NC(=O)[C@](C)(CC(C)C)NC(=O)[C@@H](NC(=O)[C@H](CO)NC(=O)[C@H](Cc1ccc(O)cc1)NC(=O)[C@H](CC(=O)O)NC(=O)[C@H](CO)NC(=O)[C@@H](NC(=O)[C@H](Cc1ccccc1)NC(=O)[C@@H](NC(=O)CNC(=O)[C@H](CCC(N)=O)NC(=O)C(C)(C)NC(=O)[C@@H](N)Cc1ccc(O)cc1)[C@@H](C)O)[C@@H](C)O)[C@@H](C)CC)C(=O)N[C@@H](CCC(=O)O)C(=O)N[C@@H](Cc1ccc(O)cc1)C(=O)N[C@@H](CC(C)C)C(=O)N[C@@H](CC(C)C)C(=O)N[C@@H](C)C(=O)NC(C)(C)C(=O)NCC(=O)N1CCC[C@H]1C(=O)N[C@@H](CO)C(=O)N[C@@H](CO)C(=O)NCC(=O)N[C@@H](C)C(=O)N1CCC[C@H]1C(=O)N1CCC[C@H]1C(=O)N1CCC[C@H]1C(=O)N[C@@H](CO)C(N)=O) [Example 1] | 0.153 | 7.49 | 0.114 | 2.54 | 0.0523 | 0.914 | 2.64 | 8.41 | 0.0469
2 | Y[Aib]QGTFTSDYSI[αMeL]LDKK([AEEA-γGlu-C20 diacid])AQHAFIEYLLA[Aib]GPSSGAPPPS-NH2 (N-terminus assumed; SMILES CC[C@H](C)[C@H](NC(=O)[C@H](Cc1ccccc1)NC(=O)[C@H](C)NC(=O)[C@H](Cc1c[nH]cn1)NC(=O)[C@H](CCC(N)=O)NC(=O)[C@H](C)NC(=O)[C@H](CCCCNC(=O)COCCOCCNC(=O)CC[C@H](NC(=O)CCCCCCCCCCCCCCCCCCC(=O)O)C(=O)O)NC(=O)[C@H](CCCCN)NC(=O)[C@H](CC(=O)O)NC(=O)[C@H](CC(C)C)NC(=O)[C@](C)(CC(C)C)NC(=O)[C@@H](NC(=O)[C@H](CO)NC(=O)[C@H](Cc1ccc(O)cc1)NC(=O)[C@H](CC(=O)O)NC(=O)[C@H](CO)NC(=O)[C@@H](NC(=O)[C@H](Cc1ccccc1)NC(=O)[C@@H](NC(=O)CNC(=O)[C@H](CCC(N)=O)NC(=O)C(C)(C)NC(=O)[C@@H](N)Cc1ccc(O)cc1)[C@@H](C)O)[C@@H](C)O)[C@@H](C)CC)C(=O)N[C@@H](CCC(=O)O)C(=O)N[C@@H](Cc1ccc(O)cc1)C(=O)N[C@@H](CC(C)C)C(=O)N[C@@H](CC(C)C)C(=O)N[C@@H](C)C(=O)NC(C)(C)C(=O)NCC(=O)N1CCC[C@H]1C(=O)N[C@@H](CO)C(=O)N[C@@H](CO)C(=O)NCC(=O)N[C@@H](C)C(=O)N1CCC[C@H]1C(=O)N1CCC[C@H]1C(=O)N1CCC[C@H]1C(=O)N[C@@H](CO)C(N)=O) [Example 2] | 0.207 | 12.8 | 0.0553 | 2.66 | 0.0474 | 2.19 | 4.5 | 3.71 | 0.0665
